Measurements as given in patent US20160009800A1 (XOMA US, published 2016).
Each block holds one binder with its values, some of them ahead of it.

What was measured:
mouse insulin receptor [1] = molecular target: T1, mouse insulin receptor (mouse, UniProt P15208 28-1372); test: flow cytometry, biotinylated IgG on mINSR-CHOK1 cells
T1 construct: whole, on cells; also called muINSR; mINSR

human insulin receptor [2] = molecular target: T2, human insulin receptor (human, UniProt P06213 28-1382); test: cell-based or functional assay
mouse insulin receptor [3] = molecular target: T1, mouse insulin receptor; test: cell-based or functional assay
rabbit insulin receptor [4] = molecular target: T3, rabbit insulin receptor (rabbit, UniProt A0A5F9DAH8 25-1377); test: FACS on monocytes of rabbit PBMC, without insulin
T3 construct: whole, on cells
Source text: Cynomolgus monkey whole blood was obtained from California National Primate Research Center (Davis, Calif.) and rabbit whole blood was obtained from LifeSource Biomedical, LLC (Moffett Field, Calif.). Human PBMC were purified using Ficoll Hypaque from buffy coats obtained from the American Red Cross. Cynomolgus and Rabbit PBMC were than purified using Ficoll Hypaque gradients (Pharmacia). Purified PBMC were frozen and stored in liquid nitrogen prior to use in the assay. Human, cynomolgus and rabbit PBMC were thawed and washed with FACS Buffer (0.5% BSA and 0.1% NaN3 in PBS). Once the cells were prepared, they were used in the FACS staining assay at a final concentration of 2×10⁶ cells/ml.
After washing twice with FACS buffer, cells were stained with various markers to capture monocytes population. Human and cynomolgus cells were stained with CD45 and CD14. Rabbit cells were stained with CD11b and CD14. Antibodies were than incubated for 20 minutes and washed twice with FACS Buffer. Cells were than fixed with 2% paraformaldehyde and equal volume of FACS Buffer was added prior to cell analysis. The cells were analyzed on a FACScan™ (Becton-Dickinson, Franklin Lakes, N.J.) and the data was analyzed using both FloJo™ (Tristar, Paso Robles, Calif.) and GraphPad Prism 5 (GraphPad Software, La Jolla, Calif.).

[5] = molecular target: T4, human insulin receptor complexed with human insulin (human, UniProt P06213 28-1382; P01308 25-54; P01308 90-110); test: KinExA antibody depletion by hINSR8-CHOK1 cells, with 175 nM insulin
T4 construct: whole, on cells;mature; also called hINSR-hINS complex; INS/INSR complex
Procedure: (§1) Beads were rotated at room temperature for 6 hours then allowed to settle. Supernatant was replaced with PBS with 50 mg/mL BSA Fraction V (Sigma-Aldrich, St. Louis, Mo.) and rotated overnight at 4° C. […] On the KinExA 3000 the sample was injected at 0.25 mL/minute for 240 seconds, then rinsed for 60 seconds in running buffer (PBS with 0.05% sodium azide), then 240 seconds of the detection solution was injected, followed by a final 90 second wash at 1 mL/minute. The difference in voltage from an early initial time-point and a time point near the end of the run was measured and used to calculate affinities. The INSR concentration on the cells was estimated at 2.5×10⁵ receptors/cell. Affinity was determined using the KinExA software (Sāpidyne, Boise Id.) and EC50's were calculated by non-linear fit in Prism (GraphPad Software, La Jolla Calif.).
(§2) Samples were incubated overnight at 4° C. for 18 hours then centrifuged to pellet cells and supernatants were removed for testing on the KinExA. […] Detection solution used was R-PE-(Fab′)2 fragment goat anti-Human IgG(H+L) (Jackson Immuno Research, West Grove Pa.).

human insulin receptor [6] = molecular target: T2, human insulin receptor; test: FACS, serum-starved CHO-K1 cells expressing human INSR, no insulin [cont'd]
Procedure: (§3) Twenty five microliter aliquots of cells were plated into 96 well plates, mixed with 25 ul of antibody or PPE and incubated on ice for 1 h.
(§4) The cells were then washed once with FACS buffer and the binding of the antibody was detected by the addition of 25 ul of an appropriate fluorochrome-conjugated secondary antibody. […] After a final 15 min incubation on ice the cells were washed and the pellets resuspended in FACS buffer. The cells were analyzed on a FACSCAN™ (Becton-Dickinson, Milipitas, Calif.) and the data analyzed in both FLOWJO™ (Treestar, Ashland, Oreg.) and Microsoft Excel™.

mouse insulin receptor [7] = molecular target: T1, mouse insulin receptor; test: FACS, serum-starved CHO-K1 cells expressing mouse INSR, no insulin [cont'd]
[8] = molecular target: T4, human insulin receptor complexed with …; test: FACS, serum-starved CHO-K1 cells expressing human INSR, with insulin [cont'd]
Procedure: as §3, §4

[9] = molecular target: T5, mouse insulin receptor complexed with human insulin (mouse; human, UniProt P15208 28-1372; P01308 25-54; P01308 90-110); test: FACS, serum-starved CHO-K1 cells expressing mouse INSR, with insulin [cont'd]
T5 construct: whole, on cells;mature; also called muINSR/hINS complex
Procedure: as §3, §4

[10] = molecular target: T4, human insulin receptor complexed with …; test: FACS, CHO-K1 human INSR cells, signal with insulin divided by signal without insulin [cont'd]
Procedure: as §3, §4

[11] = molecular target: T5, mouse insulin receptor complexed with …; test: FACS, CHO-K1 mouse INSR cells, signal with insulin divided by signal without insulin [cont'd]
Procedure: as §3, §4

human insulin receptor [12] = molecular target: T2, human insulin receptor; test: cell-based or functional assay; remark: listed apart in the source
mouse insulin receptor [13] = molecular target: T1, mouse insulin receptor; test: cell-based or functional assay; remark: listed apart in the source
human insulin receptor [14] = molecular target: T2, human insulin receptor; test: cell-based or functional assay; remark: listed apart in the source
[15] = molecular target: T4, human insulin receptor complexed with …; test: KinExA, affinity with insulin against affinity without insulin
Procedure: as §1, §2

human insulin receptor [16] = molecular target: T2, human insulin receptor; test: KinExA antibody depletion by hINSR8-CHOK1 cells, without insulin
Procedure: as §1, §2

human insulin receptor [17] = molecular target: T2, human insulin receptor; test: cell-based or functional assay; remark: listed apart in the source
human insulin receptor [18] = molecular target: T2, human insulin receptor; test: FACS, serum-starved CHO-K1 cells expressing human INSR, no insulin
Procedure: as §3, §4

mouse insulin receptor [19] = molecular target: T1, mouse insulin receptor; test: FACS, serum-starved CHO-K1 cells expressing mouse INSR, no insulin
[20] = molecular target: T5, mouse insulin receptor complexed with …; test: FACS, serum-starved CHO-K1 cells expressing mouse INSR, with insulin
Procedure: as §3, §4

[21] = molecular target: T5, mouse insulin receptor complexed with …; test: FACS, CHO-K1 mouse INSR cells, signal with insulin divided by signal without insulin
Procedure: as §3, §4

rabbit insulin receptor [22] = molecular target: T3, rabbit insulin receptor; test: FACS on monocytes of rabbit PBMC and on CHO cells expressing rabbit insulin receptor, without insulin

binding result (mouse insulin receptor [1]): binds
B1: Ab086 (antibody, IgG2, V domains shown)
VH: EVQLVETGGGVVRPGGSLRLSCAASGFTFGDYGMSWVRQAPGKGLEWVSGINWNGGSTGYADSVKGRFTISRDNAKNSLYLQMNSLRAEDTALYYCARDILGVEFDYWGQGTLVTVSS
VL: QSALTQPASVSGSLGQSITISCTGTSSDIGLYKFVSWYQQHPGKAPKLMIYDVSYRPSGVSNRFSGSSSGNTASLTISGLQAEDEADYYCNSYTSSSTLVVFGGGTKLTVL
notes: also called XPA.015.219

fold change in insulin EC50 (pAKT) relative to isotype control mAb, 10 ug/mL Ab061 (human insulin receptor [17]): 269 fold | FACS area under log transformed data MFI (human insulin receptor [18]): 204 | FACS area under log transformed data MFI (mouse insulin receptor [19]): 462 | FACS area under log transformed data MFI [20]: 170 | FACS area under log transformed data MFI ratio (+insulin/-insulin) [21]: 0.37
B4: Ab061 (antibody, IgG2, V domains shown)
VH: QMQLVQSGAEVKKTGESLKISCQGYGYRFTDNWIGWVRQMPGRGLEWMGIIYPGDSETRYSPSFQGQVTISADKSISTAYLEWSSLKASDTAMYYCARHAPLAVAGMALGDWGQGTLVTVSS
VL: QTVVTQEPSFSVSPGGTVTLTCGLSSGSVSTGYSPGWYQQTPGQAPRTLVYNTNTRSSGVPDRFSGSILGNKAALTITGAQADDESDYYCALYMGSGTYVFGGGTKLTVL
notes: Negative modulator; also called XPA.015.209

binding result (mouse insulin receptor [1]): binds
B6: Ab004 (antibody, V domains shown)
VH: EVQLLESGGGLVQPGGSLRLSCAASGFTFRNFAMMWVRQAPGKGLEWVSGISWNSGSIGYADSVKGRFTISRDNSKNTLYLQMNSLRAEDTAVYYCARPSGAYPTPFDNWGQGTLVTVSS
VL: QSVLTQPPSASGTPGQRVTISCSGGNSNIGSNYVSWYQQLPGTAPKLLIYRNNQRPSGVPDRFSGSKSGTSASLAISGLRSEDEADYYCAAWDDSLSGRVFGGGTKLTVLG
notes: Sole member of Bin 7; also called XPA.015.066

The next lines start with the binder.

B2: Ab077 (antibody, IgG2, V domains shown)
VH: EVQLVESGGGVVQPGGSLRLSCAASGFTFSSYWMTWVRQAPGKGLEWVANINQDGSEKHYVDSVKGRFTISRDNAKNSLYLQMNSLRGEDTAVYYCARGRGAWAFDYWGQGTLVTVSS
VL: DIQMTQSPSSLSASVGDRVTITCRASQGISSWLAWYQQKPGKAPKLLIYAASSLQSGVPSRFSGSGSGTDFTLTISSLQPEDFATYYCQQANSFPITFGQGTRLEIK
notes: also called XPA.015.243
fold-change in insulin EC50 (pAkt) relative to isotype control, 10 ug/ml Ab077, human INSR CHO-K1 cells (human insulin receptor [2]): 9 fold | fold-change in insulin EC50 (pAkt) relative to isotype control, 20 ug/ml Ab077, mouse INSR CHO-K1 cells (mouse insulin receptor [3]): 8 fold | binding result (rabbit insulin receptor [4]): no binding | Kd [5]: 6.4 nM | FACS area under log transformed data MFI (human insulin receptor [6]): 127 | FACS area under log transformed data MFI (mouse insulin receptor [7]): 45 | FACS area under log transformed data MFI [8]: 268 | FACS area under log transformed data MFI [9]: 103 | FACS area under log transformed data MFI ratio (+insulin/-insulin) [10]: 2.12 | FACS area under log transformed data MFI ratio (+insulin/-insulin) [11]: 2.28

B3: Ab001 (antibody, V domains shown)
VH: EVQLLESGGGLVQPGGSLRLSCAASGFTFSSYEMNWVRQAPGKGLEWVSSISSSSSYIYYADSVKGRFTISRDNSKNTLYLQMNSLRAEDTAVYYCARVRWYKDSDAFDIWGQGTLVTVSS
VL: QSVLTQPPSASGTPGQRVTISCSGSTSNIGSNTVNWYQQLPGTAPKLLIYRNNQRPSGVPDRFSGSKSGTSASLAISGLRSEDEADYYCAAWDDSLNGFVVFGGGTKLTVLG
notes: Positive modulator, Bin 1; also called XPA.015.138
positive modulation of insulin-dependent signaling, pAKT assay, CHOK1 human INSR (human insulin receptor [12]): ~10 fold | positive modulation of insulin-dependent signaling, pAKT assay, CHOK1 mouse INSR (mouse insulin receptor [13]): ~10 fold | pAKT assay, fold-decrease in insulin EC50 relative to isotype control Ab (human insulin receptor [14]): 9.7 fold | fold-change in insulin EC50 (pAkt) relative to isotype control, 2 ug/ml Ab001, human INSR CHO-K1 cells (human insulin receptor [2]): 12 fold | fold-change in insulin EC50 (pAkt) relative to isotype control, 2 ug/ml Ab001, mouse INSR CHO-K1 cells (mouse insulin receptor [3]): 7 fold | Fold Improvement with Insulin [15]: 103 fold | Kd (human insulin receptor [16]): 12 nM | Kd [5]: 0.116 nM

B5: Ab078 (antibody, IgG2, V domains shown)
VH: QVQLVQSGGGLVQPGGSLRLSCAASGFTFSSYSMNWVRQAPGKGLEWVSSISSSSSYIYYADSVKGRFTISRDNAKNSLYLQMNSLRAEDTAVYYCARDQGGELLGFTGYFDYWGQGTLVTVSS
VL: DIQLTQSPSSLSASVGDRVTITCRASQGISSALAWYQQKPGKAPKVLIYDASSLERGVPSRFSGSGTGTDFTLTISSLQPEDFASYYCHQFNSYPDTFGQGTRLEIK
notes: also called XPA.015.244
pAKT assay, fold-decrease in insulin EC50 relative to isotype control Ab (human insulin receptor [14]): 3.3 fold | fold-change in insulin EC50 (pAkt) relative to isotype control, 20 ug/ml Ab078, human INSR CHO-K1 cells (human insulin receptor [2]): 3 fold | Kd [5]: 0.34 nM | FACS area under log transformed data MFI (human insulin receptor [6]): 11 | FACS area under log transformed data MFI [8]: 704 | FACS area under log transformed data MFI [9]: 217 | FACS area under log transformed data MFI ratio (+insulin/-insulin) [10]: 66 | FACS area under log transformed data MFI ratio (+insulin/-insulin) [11]: 17.6 | binding result (rabbit insulin receptor [22]): no binding

B7: Ab070 (antibody, IgG2, V domains shown)
VH: EVQLVQSGAEVKKPGESLKISCKGSGYSFTSYWIGWVRQMPGKGLEWMGIIYPGDSDTRYSPSFQGQVTISADKSISTSYLQWSSLRASDTAMYYCARLGSGWYGNDYWGQGTLVTVSS
VL: SSELTQDPAVSVALGQTVRITCQGDSLRSYYTSWYQQKPGQAPVLVIFGKNNRPSGIPDRFSGSSSGNTASLTITGAQAEDEADYYCNSRDSSGNYAVFGGGTQLTVL
notes: Negative modulator; also called XPA.015.226
fold change in insulin EC50 (pAKT) relative to isotype control mAb, 20 ug/mL Ab070 (human insulin receptor [17]): 17 fold | FACS area under log transformed data MFI (human insulin receptor [6]): 283 | FACS area under log transformed data MFI (mouse insulin receptor [7]): 587 | FACS area under log transformed data MFI [9]: 389 | FACS area under log transformed data MFI ratio (+insulin/-insulin) [11]: 0.66
